In patent publication CN106754740A:

Target: 纯化的重组蛋白MDR-1 (原核表达, PET28a-MDR-1, 大肠杆菌BL21) (human) (UniProt P08183)
Assay: direct ELISA, purified antibody diluted 1:200 to 1:12800 on plate coated with purified MDR-1 protein (10 μg/ml), goat anti-mouse IgG-HRP, OD450

Chain of UniProt P08183 (P08183 whole entry): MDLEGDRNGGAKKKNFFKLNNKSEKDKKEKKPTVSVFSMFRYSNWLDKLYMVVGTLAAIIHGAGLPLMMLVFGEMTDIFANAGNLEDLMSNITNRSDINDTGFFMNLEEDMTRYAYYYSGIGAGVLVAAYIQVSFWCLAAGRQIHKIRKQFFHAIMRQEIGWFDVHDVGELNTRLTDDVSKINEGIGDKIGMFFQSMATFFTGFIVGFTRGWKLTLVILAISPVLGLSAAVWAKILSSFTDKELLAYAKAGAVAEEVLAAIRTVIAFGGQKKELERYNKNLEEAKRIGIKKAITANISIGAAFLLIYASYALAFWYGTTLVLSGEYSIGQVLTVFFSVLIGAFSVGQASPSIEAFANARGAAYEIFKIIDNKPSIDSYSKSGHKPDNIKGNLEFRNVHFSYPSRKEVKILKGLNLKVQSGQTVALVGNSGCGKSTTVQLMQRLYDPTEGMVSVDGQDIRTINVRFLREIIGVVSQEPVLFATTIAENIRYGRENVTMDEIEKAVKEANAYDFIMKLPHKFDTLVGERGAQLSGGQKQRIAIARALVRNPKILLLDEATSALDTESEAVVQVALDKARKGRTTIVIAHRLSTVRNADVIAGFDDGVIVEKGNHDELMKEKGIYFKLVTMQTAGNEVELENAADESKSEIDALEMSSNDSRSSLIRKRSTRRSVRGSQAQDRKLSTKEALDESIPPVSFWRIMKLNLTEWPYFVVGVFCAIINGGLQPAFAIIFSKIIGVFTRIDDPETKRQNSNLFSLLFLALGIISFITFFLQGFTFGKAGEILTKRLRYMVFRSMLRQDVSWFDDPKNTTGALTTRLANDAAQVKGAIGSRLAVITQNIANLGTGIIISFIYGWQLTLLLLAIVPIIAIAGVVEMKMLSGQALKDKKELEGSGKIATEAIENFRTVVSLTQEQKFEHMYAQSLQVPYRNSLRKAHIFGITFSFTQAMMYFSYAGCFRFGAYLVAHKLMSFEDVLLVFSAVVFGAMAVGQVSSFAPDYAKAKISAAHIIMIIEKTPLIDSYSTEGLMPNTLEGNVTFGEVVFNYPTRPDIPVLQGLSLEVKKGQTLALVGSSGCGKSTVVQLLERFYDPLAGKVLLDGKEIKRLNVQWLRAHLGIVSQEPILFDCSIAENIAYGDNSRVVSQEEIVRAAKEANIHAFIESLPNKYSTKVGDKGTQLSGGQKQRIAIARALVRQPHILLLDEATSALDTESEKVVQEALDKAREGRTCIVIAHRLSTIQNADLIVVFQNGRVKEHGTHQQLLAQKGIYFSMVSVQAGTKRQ

- ELISA滴度 (dilution (1:x)): > 10000
B1: 小鼠抗人MDR-1单克隆抗体 (杂交瘤细胞株6C6, CGMCC No. 6917 产生) (antibody, part only; not given: light chain variable region, constant regions, V domains shown, part only)
VH: LGISTMNFGLSWVFLVLVLKGVQCEVKLVESGGGLVKPGGSLKLSCAASGFTFSNYAMSWVRQTPEKRLEWVASISSGGGGSTYYPDSVKGRFTISRDNARNILYLLMSSLRSEDTAMYYVCVMSLSEQSSCINLP
